{"source": "patent US10208087B2", "about": "“Peptides” (Hoffmann-La Roche Inc., priority 2014, dated 2019)", "note": "Where a name gives a salt, the structure may show the parent alone. Starred links: 1 amine or outer side, 2 acyl side, 3 side chain; linkers in the order of their positions; H or OH if unused. Non-standard residues stand in square brackets, D forms with d. Residues, ends and D or L forms follow the SMILES beside them. No end group written: not given here. *: point of attachment. Elaidic = elaidic acid acyl on Lys side chain, CCCCCCCC/C=C/CCCCCCCC(=O)*; MetSta(3S,4S) = CSCC[C@H](N[*:1])[C@@H](O)CC(=O)[*:2]; Palmitoleoyl = CCCCCC/C=C\\CCCCCCCC(=O)*; Sta = CC(C)C[C@H](N)[C@@H](O)CC(=O)O; Palmitoyl = CCCCCCCCCCCCCCCC(=O)*; PEG4 = NCCOCCOCCOCCOCCC(=O)O; PEG3 = NCCOCCOCCOCCC(=O)O; Nle = CCCC[C@H](N)C(=O)O; Palm = palmityl"}
{"target": "BACE1 (UniProt P56817 46-501, limits assumed)", "sequence (P56817 46-501 limits assumed)": "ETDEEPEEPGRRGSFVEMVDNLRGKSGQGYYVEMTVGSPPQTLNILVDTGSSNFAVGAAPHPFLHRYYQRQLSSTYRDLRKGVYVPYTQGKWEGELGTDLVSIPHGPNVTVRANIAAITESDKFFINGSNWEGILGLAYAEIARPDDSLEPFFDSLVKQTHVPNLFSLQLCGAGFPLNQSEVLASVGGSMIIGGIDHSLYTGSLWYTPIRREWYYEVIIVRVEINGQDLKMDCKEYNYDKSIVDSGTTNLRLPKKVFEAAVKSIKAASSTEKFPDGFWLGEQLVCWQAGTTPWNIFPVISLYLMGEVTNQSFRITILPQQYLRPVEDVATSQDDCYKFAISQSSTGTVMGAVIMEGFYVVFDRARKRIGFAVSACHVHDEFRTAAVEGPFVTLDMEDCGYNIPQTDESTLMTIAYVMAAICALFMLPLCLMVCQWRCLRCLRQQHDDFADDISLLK", "assay": "cell-based or functional assay", "settings": "not given", "units": {"IC50, cellular Aβ-lowering assay (Aβ40 in supernatant of HEK293 cells expressing human APP695)": "nM"}}
{"molecule": "YPYFIPLG[dA][dK]EVN[Sta]VAEFK(Palm)-NH2 (also: TFA salt)", "note": "[YPYFIPL-Gak-EVN-Sta-VAEFK(Palm)-NH2 x TFA]", "IC50, cellular Aβ-lowering assay (Aβ40 in supernatant of HEK293 cells expressing human APP695)": 98}
{"molecule": "YPYFIPLGPGEVN[Sta]VAEFK(Palm)-NH2 (also: TFA salt)", "note": "[YPYFIPL-GPG-EVN-Sta-VAEFK(Palm)-NH2 x TFA]", "IC50, cellular Aβ-lowering assay (Aβ40 in supernatant of HEK293 cells expressing human APP695)": 140}
{"molecule": "YPYFIPLGGSEVN[Sta]VAEFK(Palm)-NH2 (also: TFA salt)", "note": "[YPYFIPL-GGS-EVN-Sta-VAEFK(Palm)-NH2 x TFA]", "IC50, cellular Aβ-lowering assay (Aβ40 in supernatant of HEK293 cells expressing human APP695)": 53}
{"molecule": "YPYFIPLGSGEVN[Sta]VAEFK(Palm)-NH2 (also: TFA salt)", "note": "[YPYFIPL-GSG-EVN-Sta-VAEFK(Palm)-NH2 x TFA]", "IC50, cellular Aβ-lowering assay (Aβ40 in supernatant of HEK293 cells expressing human APP695)": 41}
{"molecule": "YPKFIPLG[dK]GEVN[Sta]VAE[dP]K(Vaccenic)-NH2 (also: 3TFA salt)", "note": "[YPKFIPL-GkG-EVN-Sta-VAEp-K(Vaccenic)-NH2 x 3TFA]", "IC50, cellular Aβ-lowering assay (Aβ40 in supernatant of HEK293 cells expressing human APP695)": 2.68}
{"molecule": "YPKFIPLG[dK]GEVN[Sta]VAE[dP]K(Palmitoleoyl)-NH2 (also: 3TFA salt)", "note": "[YPKFIPL-GkG-EVN-Sta-VAEp-K(Palmitoleic)-NH2 x 3TFA]", "IC50, cellular Aβ-lowering assay (Aβ40 in supernatant of HEK293 cells expressing human APP695)": 19.9}
{"molecule": "YPKFIPLG[dK]GEVN[Sta]VAE[dP]K(Oleic)-NH2 (also: 3TFA salt)", "note": "[YPKFIPL-GkG-EVN-Sta-VAEp-K(Oleic)-NH2 x 3TFA]", "IC50, cellular Aβ-lowering assay (Aβ40 in supernatant of HEK293 cells expressing human APP695)": 6.02}
{"molecule": "YPYFIPLGGGEVN[Sta]VAEFK(Palm)-NH2 (also: TFA salt)", "note": "[YPYFIPL-GGG-EVN-Sta-VAEFK(Palm)-NH2 x TFA]", "IC50, cellular Aβ-lowering assay (Aβ40 in supernatant of HEK293 cells expressing human APP695)": 120}
{"molecule": "YPKFIPLG[dK]GEVN[Sta]VAE[dP]K(Palm)-NH2 (also: 3TFA salt)", "note": "[YPKFIPL-GkG-EVN-Sta-VAEp-K(Palm)-NH2 x 3TFA]", "IC50, cellular Aβ-lowering assay (Aβ40 in supernatant of HEK293 cells expressing human APP695)": 1.37}
{"molecule": "YPYFIPLAGGEVN[Sta]VAEFK(Palm)-NH2 (also: TFA salt)", "note": "[YPYFIPL-AGG-EVN-Sta-VAEFK(Palm)-NH2 x TFA]", "IC50, cellular Aβ-lowering assay (Aβ40 in supernatant of HEK293 cells expressing human APP695)": 53}
{"molecule": "YPKFIPLG[dK]GEVN[Sta]VAE[dP]K(Erucic)-NH2 (also: 3TFA salt)", "note": "[YPKFIPL-GkG-EVN-Sta-VAEp-K(Erucic)-NH2 x 3TFA]", "IC50, cellular Aβ-lowering assay (Aβ40 in supernatant of HEK293 cells expressing human APP695)": 1.15}
{"molecule": "YPKFIPLG[dK]GEVN[Sta]VAE[dP]K(Myristoleic)-NH2 (also: 3TFA salt)", "note": "[YPKFIPL-GkG-EVN-Sta-VAEp-K(Myristoleic)-NH2 x 3TFA]", "IC50, cellular Aβ-lowering assay (Aβ40 in supernatant of HEK293 cells expressing human APP695)": 208}
{"molecule": "YPYFIPLG[dK]GEVN[Sta]VAEFK(Palm)-NH2 (also: TFA salt)", "note": "[YPYFIPL-GkG-EVN-Sta-VAEFK(Palm)-NH2 x TFA]", "IC50, cellular Aβ-lowering assay (Aβ40 in supernatant of HEK293 cells expressing human APP695)": 64}
{"molecule": "YPKFIPLG[dK]GEVN[Sta]VAE[dP]K(Elaidic)-NH2 (also: 3TFA salt)", "note": "[YPKFIPL-GkG-EVN-Sta-VAEp-K(Elaidic)-NH2 x 3TFA]", "IC50, cellular Aβ-lowering assay (Aβ40 in supernatant of HEK293 cells expressing human APP695)": 3.02}
{"molecule": "YPYFIPL[PEG3]EVN[MetSta(3S,4S)]VAE[dF]K(Palm)-NH2 (also: TFA salt)", "note": "[YPYFIPL-PEG(3)-EVN-MetSta-VAE-DPhe-K(Palm)-NH2 x TFA]", "IC50, cellular Aβ-lowering assay (Aβ40 in supernatant of HEK293 cells expressing human APP695)": 41}
{"molecule": "YPYFIPLG[dP]GEVN[Sta]VAEFK(Palm)-NH2 (also: TFA salt)", "note": "[YPYFIPL-GpG-EVN-Sta-VAEFK(Palm)-NH2 x TFA]", "IC50, cellular Aβ-lowering assay (Aβ40 in supernatant of HEK293 cells expressing human APP695)": 48}
{"molecule": "YPYFIPLG[Nle]GEVN[Sta]VAEFK(Palm)-NH2 (also: TFA salt)", "note": "[YPYFIPL-G-Nle-G-EVN-Sta-VAEFK(Palm)-NH2 x TFA]", "IC50, cellular Aβ-lowering assay (Aβ40 in supernatant of HEK293 cells expressing human APP695)": 120}
{"molecule": "YPYFIPL[PEG4]EVN[MetSta(3S,4S)]VAE[dF]K(Palm)-NH2 (also: TFA salt)", "note": "[YPYFIPL-PEG(4)-EVN-MetSta-VAE-DPhe-K(Palm)-NH2 x TFA]", "IC50, cellular Aβ-lowering assay (Aβ40 in supernatant of HEK293 cells expressing human APP695)": 18}
{"target": "T1, BACE1 (Homo sapiens, UniProt P56817)", "T1 construct": "Human HEK293 cells which are stably transfected with a vector expressing a cDNA of the human APP wt gene (APP695); endogenous in cells; host or cells: HEK293 cells stably transfected with human APP695 wt", "T1 sequence (P56817 46-501)": "as the sequence (P56817 46-501 limits assumed) above", "assay": "Cellular Aβ-lowering Assay", "type": "cell-based", "settings": "Aβ40 in culture supernatant (ELISA) of human HEK293 cells stably expressing human APP wt (APP695); 18-20 hrs incubation", "protocol": "The compounds were investigated in accordance with the test given hereinafter. Cellular Aβ-lowering Assay: Human HEK293 cells which are stably transfected with a vector expressing a cDNA of the human APP wt gene (APP695) were used to assess the potency of the compounds in a cellular assay. […] After blocking of non-specific binding sites with e.g. 1% BSA and washing, the culture supernatants were added in suitable dilutions together with a horseradish peroxidase-coupled Aβ detection antibody (e.g., antibody 4G8, Senetek, Maryland Heights, Mo.) and incubated for 5 to 7 hrs. Subsequently the wells of the microtiter plate were washed extensively with Tris-buffered saline containing 0.05% Tween 20 and the assay was developed with tetramethylbenzidine/H2O2 in citric acid buffer. After stopping the reaction with one volume 1 N H2SO4 the reaction was measured in an ELISA reader at 450 nm wavelength. The concentrations of Aβ in the culture supernatants were calculated from a standard curve obtained with known amounts of pure Aβ peptide.", "units": {"IC50": "nM"}}
{"molecule": "CCCCCCCCCCCCCCCC(=O)NCCCC[C@H](NC(=O)[C@H](Cc1ccccc1)NC(=O)[C@H](CCC(=O)O)NC(=O)[C@H](C)NC(=O)[C@@H](NC(=O)C[C@H](O)[C@H](CC(C)C)NC(=O)[C@H](CC(N)=O)NC(=O)[C@@H](NC(=O)[C@H](CCC(=O)O)NC(=O)CNC(=O)[C@H](CCCC)NC(=O)CNC(=O)[C@H](CC(C)C)NC(=O)[C@@H]1CCCN1C(=O)[C@@H](NC(=O)[C@H](Cc1ccccc1)NC(=O)[C@H](Cc1ccc(O)cc1)NC(=O)[C@@H]1CCCN1C(=O)[C@@H](N)Cc1ccc(O)cc1)[C@@H](C)CC)C(C)C)C(C)C)C(N)=O", "note": "[Example 6, Tyr-Pro-Tyr-Phe-Ile-Pro-Leu-Gly-Nle-Gly-Glu-Val-Asn-Sta-Val-Ala-Glu-Phe-Lys(Palmityl)-NH2 x TFA]", "IC50": 120}
{"molecule": "CCCCCCCCCCCCCCCC(=O)NCCCC[C@H](NC(=O)[C@H](Cc1ccccc1)NC(=O)[C@H](CCC(=O)O)NC(=O)[C@H](C)NC(=O)[C@@H](NC(=O)C[C@H](O)[C@H](CC(C)C)NC(=O)[C@H](CC(N)=O)NC(=O)[C@@H](NC(=O)[C@H](CCC(=O)O)NC(=O)CNC(=O)[C@H](CO)NC(=O)CNC(=O)[C@H](CC(C)C)NC(=O)[C@@H]1CCCN1C(=O)[C@@H](NC(=O)[C@H](Cc1ccccc1)NC(=O)[C@H](Cc1ccc(O)cc1)NC(=O)[C@@H]1CCCN1C(=O)[C@@H](N)Cc1ccc(O)cc1)[C@@H](C)CC)C(C)C)C(C)C)C(N)=O", "note": "[Example 9, Tyr-Pro-Tyr-Phe-Ile-Pro-Leu-Gly-Ser-Gly-Glu-Val-Asn-Sta-Val-Ala-Glu-Phe-Lys(Palmityl)-NH2 x TFA] (H-YPYFIPLGSGEVN[Sta]VAEFK(Palmitoyl)-NH2; N-terminus assumed)", "IC50": 41}
{"molecule": "CCCCCCCCCCCCCCCC(=O)NCCCC[C@H](NC(=O)[C@@H](Cc1ccccc1)NC(=O)[C@H](CCC(=O)O)NC(=O)[C@H](C)NC(=O)[C@@H](NC(=O)C[C@H](O)[C@H](CCSC)NC(=O)[C@H](CC(N)=O)NC(=O)[C@@H](NC(=O)[C@H](CCC(=O)O)NC(=O)CCOCCOCCOCCNC(=O)[C@H](CC(C)C)NC(=O)[C@@H]1CCCN1C(=O)[C@@H](NC(=O)[C@H](Cc1ccccc1)NC(=O)[C@H](Cc1ccc(O)cc1)NC(=O)[C@@H]1CCCN1C(=O)[C@@H](N)Cc1ccc(O)cc1)[C@@H](C)CC)C(C)C)C(C)C)C(N)=O", "note": "[Example 33, Tyr-Pro-Tyr-Phe-Ile-Pro-Leu-(PEG)3-Glu-Val-Asn-MetSta-Val-Ala-Glu-DPhe-Lys(Palm)-NH2 x TFA] (H-YPYFIPL[PEG3]EVN[MetSta(3S,4S)]VAE[dF]K(Palmitoyl)-NH2; N-terminus assumed)", "IC50": 41}
